Measurements taken from IntAct's records for PubMed 10743655.

B1: Zinc finger protein CONSTANS (Arabidopsis thaliana (Mouse-ear cress)), Q39057 (parent)
chain: MLKQESNDIGSGENNRARPCDTCRSNACTVYCHADSAYLCMSCDAQVHSANRVASRHKRVRVCESCERAPAAFLCEADDASLCTACDSEVHSANPLARRHQRVPILPISGNSFSSMTTTHHQSEKTMTDPEKRLVVDQEEGEEGDKDAKEVASWLFPNSDKNNNNQNNGLLFSDEYLNLVDYNSSMDYKFTGEYSQHQQNCSVPQTSYGGDRVVPLKLEESRGHQCHNQQNFQFNIKYGSSGTHYNDNGSINHNAYISSMETGVVPESTACVTTASHPRTPKGTVEQQPDPASQMITVTQLSPMDREARVLRYREKRKTRKFEKTIRYASRKAYAEIRPRVNGRFAKREIEAEEQGFNTMLMYNTGYGIVPSF
partner: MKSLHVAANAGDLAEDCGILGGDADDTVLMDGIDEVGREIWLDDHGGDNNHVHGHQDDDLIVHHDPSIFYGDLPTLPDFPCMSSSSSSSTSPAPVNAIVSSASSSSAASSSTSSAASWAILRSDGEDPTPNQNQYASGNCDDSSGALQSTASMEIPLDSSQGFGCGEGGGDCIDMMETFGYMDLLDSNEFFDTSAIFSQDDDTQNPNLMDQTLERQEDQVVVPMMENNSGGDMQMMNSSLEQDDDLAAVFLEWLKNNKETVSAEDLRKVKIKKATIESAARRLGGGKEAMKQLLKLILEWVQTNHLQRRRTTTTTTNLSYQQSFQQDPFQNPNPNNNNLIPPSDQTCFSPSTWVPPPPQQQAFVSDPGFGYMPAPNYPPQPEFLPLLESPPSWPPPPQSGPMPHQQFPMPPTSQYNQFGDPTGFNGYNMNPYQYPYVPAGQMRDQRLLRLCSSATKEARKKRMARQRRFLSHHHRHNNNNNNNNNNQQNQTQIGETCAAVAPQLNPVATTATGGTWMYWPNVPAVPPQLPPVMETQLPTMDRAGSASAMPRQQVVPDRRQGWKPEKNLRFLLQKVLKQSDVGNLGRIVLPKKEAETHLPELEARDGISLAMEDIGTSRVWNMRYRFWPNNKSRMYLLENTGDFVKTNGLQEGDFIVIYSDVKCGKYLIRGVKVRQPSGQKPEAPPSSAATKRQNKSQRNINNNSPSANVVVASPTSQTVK

Variants of: B1
Details: with abi3_arath ABI3, Q01593

effect of a mutation on the interaction	Variant
decreasing interaction strength	R340Q
decreasing interaction	P339L
